Here are results for one molecule from patent US20250090677A1 (MULTITUDE THERAPEUTICS, published 2025).

For one assay, the target named is T1, cyno monkey CDH6-ECD-His (cyno monkey, UniProt A0A2K5TW62 54-615).
T1 construct: extracellular domain; Bought protein; also called Cyno CDH6-ECD-His; not shown: His tag
T1 sequence: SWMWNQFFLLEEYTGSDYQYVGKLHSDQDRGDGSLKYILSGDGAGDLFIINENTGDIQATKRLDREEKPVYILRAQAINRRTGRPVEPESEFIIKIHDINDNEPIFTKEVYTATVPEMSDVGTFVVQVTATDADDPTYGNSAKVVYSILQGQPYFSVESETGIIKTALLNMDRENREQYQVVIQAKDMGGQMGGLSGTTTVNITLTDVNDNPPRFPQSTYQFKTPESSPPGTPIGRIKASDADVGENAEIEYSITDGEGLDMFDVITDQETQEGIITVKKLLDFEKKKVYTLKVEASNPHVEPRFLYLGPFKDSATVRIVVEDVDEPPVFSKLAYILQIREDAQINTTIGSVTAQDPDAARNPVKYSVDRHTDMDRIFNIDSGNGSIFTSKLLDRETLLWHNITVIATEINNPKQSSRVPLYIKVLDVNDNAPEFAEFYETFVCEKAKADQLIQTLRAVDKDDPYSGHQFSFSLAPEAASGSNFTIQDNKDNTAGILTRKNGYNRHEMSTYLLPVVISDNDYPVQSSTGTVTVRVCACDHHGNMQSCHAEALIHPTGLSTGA
Kind of assay: ELISA, antigen coated at 1 ug/mL, 3-fold antibody dilutions, HRP anti-human antibody, OD450. On the procedure:
(§1) CDH9 and […] are the most closely related family members to CDH6. Binding of CL069707-H1L1 on human CDH6, CDH9 and CDH10 ECD domains were analyzed by ELISA Binding Assay. Human […], CDH9-ECD-His and CDH10-ECD-His antigens were obtained from Acro Biosystems, Inc. 100 μL of 1 μg/mL of the antigens diluted in PBS were added to 96 well plates and incubated in 4° C. overnight. The plates were washed 3 times with 300 μL of washing buffer. Then 100 μL/well of 1% BSA blocking reagent were added to the plates, and incubated at 37° C. for 1 h then the blocking reagent were discarded. A 3-fold serial dilution of CL069707-H1L1 was added to the plates and then incubated at 37° C. for 1 h. Then the plates were washed 3 times with 300 μL of washing buffer. 100 μL/well of HRP-conjugated anti-Human antibody diluted in 1% BSA were added to the plates and then incubated at 37° C. for 1 h. The plates were washed 3 times with 300 μL of washing buffer. 100 μL/well of TMB substrate were added to the plates and incubated for about 10 min in room temperature. Then the reaction was stopped with 100 μL/well of stopping solution. OD450 was read with a plate reader and the data were processed.
(§2) Binding of CL069707-H1L1 on human, cyno monkey, mouse or rat CDH6 antigen were analyzed by ELISA. Human, cyno monkey, mouse and rat CDH6-ECD-His antigens were obtained from Acro Biosystems, Inc. ELISA were done with the same methods as in example 3.1. CL069707-H1L1 binds to human, cyno monkey, mouse and rat CDH6-ECD-His antigens with similar EC50.

The next assay concerns the target T2, mouse CDH6-ECD-His (mouse, UniProt P97326 54-615).
T2 construct: extracellular domain; Bought protein; not shown: His tag
T2 sequence (looked up): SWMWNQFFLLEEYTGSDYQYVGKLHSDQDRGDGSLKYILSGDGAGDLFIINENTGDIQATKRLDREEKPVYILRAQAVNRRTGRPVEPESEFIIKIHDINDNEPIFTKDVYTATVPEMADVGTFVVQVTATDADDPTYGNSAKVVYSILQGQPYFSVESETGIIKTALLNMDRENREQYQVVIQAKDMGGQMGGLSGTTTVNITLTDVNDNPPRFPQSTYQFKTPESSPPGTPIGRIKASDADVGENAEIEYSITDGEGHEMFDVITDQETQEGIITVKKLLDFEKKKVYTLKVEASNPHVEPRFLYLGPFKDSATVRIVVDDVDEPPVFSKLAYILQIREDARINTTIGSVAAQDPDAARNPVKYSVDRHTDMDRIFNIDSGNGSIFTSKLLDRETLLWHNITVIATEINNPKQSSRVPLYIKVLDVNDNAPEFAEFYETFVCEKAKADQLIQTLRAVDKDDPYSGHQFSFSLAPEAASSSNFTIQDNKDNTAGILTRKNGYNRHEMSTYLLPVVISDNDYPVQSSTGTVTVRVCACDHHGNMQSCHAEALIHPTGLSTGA
The description is as above. On the procedure: as §1, §2

A further assay deals with T3, human CDH10-ECD-His (human, UniProt Q9Y6N8 55-613).
T3 construct: extracellular domain; Bought protein; also called CDH10-ECD-His protein; not shown: His tag
T3 sequence (looked up): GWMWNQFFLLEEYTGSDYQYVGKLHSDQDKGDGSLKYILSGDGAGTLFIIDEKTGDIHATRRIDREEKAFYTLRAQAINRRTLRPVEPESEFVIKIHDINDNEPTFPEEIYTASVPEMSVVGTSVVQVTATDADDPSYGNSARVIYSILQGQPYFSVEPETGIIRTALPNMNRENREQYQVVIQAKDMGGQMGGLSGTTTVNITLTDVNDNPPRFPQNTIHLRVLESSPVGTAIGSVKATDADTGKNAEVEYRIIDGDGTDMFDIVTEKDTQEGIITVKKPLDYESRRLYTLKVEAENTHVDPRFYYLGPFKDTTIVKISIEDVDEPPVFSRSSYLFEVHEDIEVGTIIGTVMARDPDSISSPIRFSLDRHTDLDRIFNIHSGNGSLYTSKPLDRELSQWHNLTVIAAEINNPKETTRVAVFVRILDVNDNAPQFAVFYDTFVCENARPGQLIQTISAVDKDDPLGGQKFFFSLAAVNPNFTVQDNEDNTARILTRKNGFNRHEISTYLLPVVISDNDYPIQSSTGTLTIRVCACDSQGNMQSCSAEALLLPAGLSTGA
Kind of assay: ELISA, antigen coated at 1 ug/mL, 3-fold dilutions of CL069707-H1L1, HRP anti-human antibody, OD450. On the procedure:
as §1

B1: CL069707-H1L1 (antibody, human IgG1, kappa, V domains shown)
VH: EVQLVESGGGLVQPGGSLRLSCAASGFTFTTYAMNWVRQAPGKGLEWVARIRIKNNNYATYYADSVTDRFTISRDDSKNSLYLQMNSLKTEDTAVYYCVRPDYGNYGLAYWGQGTLVTVSS
VL: DIQLTQSPSSLSASVGDRVTITCSASSSISSHYLHWYQQKPGKSPKLLIYRSFYLASGVPSRFSGSGSGTDFTLTISSLQPEDFATYYCQQDIVPLTFGQGTKLEIKR
notes: Humanized IgG1/kappa, produced in 293 cells; also called humanized CL069707-H1L1
Consider B1, for which the concentration giving a half-maximal response (EC50 (read off the curve)) with cyno monkey CDH6-ECD-His and with mouse CDH6-ECD-His was approximately 0.1 nM in each case. Moreover, the binding result with human CDH10-ECD-His is “no binding (tested: 100 nM)”.

A word on the EC50 (read off the curve): it is the concentration that produces a half-maximal response.
